According to patent US20190040136A1 (AGENCY FOR SCIENCE TECHNOLOGY AND RESEARCH, published 2019):

Columns and labels:
[1] = molecular target: T1, biotinylated recombinant human LAG-3 (human, UniProt P18627 23-450, limits assumed, biotinylated); test: ELISA, antibody coated on the plate, biotinylated recombinant human LAG-3 titrated (x axis, nM), streptavidin detection, absorbance 450-570 nm
T1 construct: also called soluble recombinant human LAG-3 protein
T1 sequence (looked up): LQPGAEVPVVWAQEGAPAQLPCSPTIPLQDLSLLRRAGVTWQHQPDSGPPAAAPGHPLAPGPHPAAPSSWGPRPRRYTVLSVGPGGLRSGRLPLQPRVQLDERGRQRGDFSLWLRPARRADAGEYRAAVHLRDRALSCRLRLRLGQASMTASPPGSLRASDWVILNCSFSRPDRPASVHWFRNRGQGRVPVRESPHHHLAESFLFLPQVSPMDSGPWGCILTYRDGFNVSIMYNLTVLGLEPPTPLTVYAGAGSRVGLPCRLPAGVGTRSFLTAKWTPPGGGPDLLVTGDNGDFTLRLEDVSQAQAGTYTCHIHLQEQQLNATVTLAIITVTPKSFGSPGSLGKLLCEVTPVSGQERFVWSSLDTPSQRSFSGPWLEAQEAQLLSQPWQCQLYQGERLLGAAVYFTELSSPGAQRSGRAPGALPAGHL

[2] = molecular target: T2, mouse LAG-3 coupled to human Fc (mouse, UniProt Q61790 24-442, limits assumed); test: ELISA, plate coated with mouse LAG-3-Fc, crude periplasmic Fab extract, anti-human Fab-HRP, absorbance 450-670 nm
T2 construct: also called murine LAG-3; Fc-coupled murine LAG-3; not shown: human Fc
T2 sequence (looked up): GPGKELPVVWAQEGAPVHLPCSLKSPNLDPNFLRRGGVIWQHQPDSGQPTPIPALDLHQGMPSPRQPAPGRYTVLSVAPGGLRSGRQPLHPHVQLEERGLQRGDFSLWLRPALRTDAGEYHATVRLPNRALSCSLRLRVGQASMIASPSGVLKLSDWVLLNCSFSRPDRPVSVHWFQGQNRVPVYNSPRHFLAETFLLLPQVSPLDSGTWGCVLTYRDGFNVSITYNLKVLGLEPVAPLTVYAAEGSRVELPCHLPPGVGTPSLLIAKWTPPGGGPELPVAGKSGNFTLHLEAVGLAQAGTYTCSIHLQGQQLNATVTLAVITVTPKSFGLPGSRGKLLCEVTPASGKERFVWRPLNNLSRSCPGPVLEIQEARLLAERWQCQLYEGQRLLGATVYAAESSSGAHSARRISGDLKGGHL
Protocol: After extensive washes in PBS Tween-20, crude periplasmic extracts from the induction were transferred into the ELISA wells in the presence of 7% milk in PBS. After 90 minutes at room temperature under agitation and extensive washes, a goat anti-human Fab antibody coupled to HRP was added. One hour la ter, plates were washed and TMB substrate was added. The reaction was stopped with 1M HCl and optical density was measured at 450 nm with a reference at 670 nm. Antibodies giving an absorbance >0.1 were selected as positive. A first clonality screening was performed by DNA fingerprinting; clonality was then confirmed by sequencing.

[3] = molecular target: T3, human LAG-3 coupled to phycoerythrin (human, UniProt P18627 23-450, limits assumed, coupled to phycoerythrin); test: blocking assay, flow cytometry: phycoerythrin-coupled human LAG-3 pre-incubated with Fab, then binding to MHC class II on Daudi cells
T3 construct: also called Labelled LAG-3
T3 sequence (looked up): T1 sequence (looked up)

[4] = molecular target: T4, human LAG-3 (Bio-Layer Interferometry; construct not stated) (human, UniProt P18627 23-450, limits assumed); test: Bio-Layer Interferometry
T4 sequence (looked up): T1 sequence (looked up)

[5] = molecular target: T2, mouse LAG-3 coupled to human Fc; test: ELISA, plate coated with mouse LAG-3 coupled to human Fc, Fab, absorbance 450-670 nm
[6] = molecular target: T3, human LAG-3 coupled to phycoerythrin; test: flow cytometry; inhibition of binding of PE-coupled human LAG-3 to MHC class II on Daudi cells
Protocol: Daudi cells were plated in 96-well plates and fixed/permeabilised in Fix/Perm buffer in the presence of anti-CD16/CD32 antibody. Premixes were added onto the Daudi cells and incubated for 30 minutes at 4° C. The cells were then washed three times in Perm/Wash buffer, resuspended in PBS and analysed by flow cytometry.

[7] = molecular target: T3, human LAG-3 coupled to phycoerythrin; test: blocking assay, flow cytometry: labelled LAG-3 pre-incubated with Fab, then binding to MHC class II on Daudi cells, mean fluorescence intensity
[8] = molecular target: T5, Human LAG-3 coupled to human Fc (human, UniProt P18627 23-450, limits assumed); test: SPR (ProteOn XPR 36), human LAG-3-Fc immobilised, A6 Fab as analyte
T5 construct: also called LAG-3-Fc; human LAG-3-Fc; not shown: human Fc
T5 sequence (looked up): T1 sequence (looked up)
Protocol: (§1) Association and dissociation rates were measured with a ProteOn XPR 36 analyser (Biorad) and the affinity (KD) was calculated.

[9] = molecular target: T5, Human LAG-3 coupled to human Fc; test: SPR (ProteOn XPR 36), human LAG-3-Fc immobilised, A6 Fab as analyte at five concentrations (L1A1-L1A5)
Protocol: as §1

B1: anti-LAG-3 antibody clone G8 in IgG1 format (antibody, V domains shown)
VH: QVQLVQSGGGVVQPGRSLRLSCAASGFTFSSYAMHWVRQAPGKGLEWVAVISYDGSNKYYADSVKGRFTISRDNSKNTLYLQMNSLRAEDTAVYYCARDPDAANWGFLLYYGMDVWGQGTTVTVSS
VL: EIVLTQSPGTLSLSPGERATLSCTTSQSVSSTSLDWYQQKPGQAPRLLIYGASSRATGIPDRFSGSGSGTDFTLTISRLEPEDFAVYYCQQYGSSLLTFGGGTKVEIK
notes: IgG1 format; also called G8 IgG1
In the case of B1, the “EC50 (read off the curve)” value [1] is reported as roughly 0.8 nM.

B2: anti-LAG-3 antibody clone C2 Fab (Fab, V domains shown)
VH: B1 VH
VL: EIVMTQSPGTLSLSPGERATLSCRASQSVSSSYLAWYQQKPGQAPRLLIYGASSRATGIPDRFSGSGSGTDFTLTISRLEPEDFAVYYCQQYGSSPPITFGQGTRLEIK
For B2, the binding result [2] was “no binding” and the IC50 [3] was 33 nM.

B3: anti-LAG-3 antibody clone G8 in IgG4 format (antibody, V domains shown)
VH: B1 VH
VL: B1 VL
notes: also called G8 IgG4
For B3, the “EC50 (read off the curve)” value [1] was roughly 0.4 nM.

B4: anti-LAG-3 antibody clone G8 Fab (Fab, V domains shown)
VH: B1 VH
VL: B1 VL
In the case of B4, the binding result [2] is reported as “no binding” and the IC50 [3] is reported as 12 nM.

B5: anti-LAG-3 antibody clone G8 (format not stated) (antibody, V domains shown)
VH: B1 VH
VL: B1 VL
notes: also called antibody G8
Work on B5 yielded a Kd [4] of 0.7 nM.

B6: anti-LAG-3 antibody clone 1G11 Fab (Fab, V domains shown)
VH: QLQLQESGGDVVQPGRSLRLSCAASGFTFSSYGMHWVRQAPGKGLEWVAVISYDGSNKYYADSVKGRFTISRDNSKNTLYLQMNSLRAEDTAVYYCARLPGWGAYAFDIWGQGTMVTVSS
VL: EIVLTQSPGTLSLSPGERATLSCRASQSVSSSFLAWYQQKPGQAPRLLIYGASSRATGIPDRFSGSGSGTDFTLTISRLEPEDFAVYYCQQYGPSITFGGGTKVEIK
For B6, the binding result [5] was “binds” and the IC50 [6] was 378 nM.

B7: anti-LAG-3 antibody clone F5 in IgG1 format (antibody, V domains shown)
VH: EVQLVQSGAEVKKPGASVKVSCKVSGYTLTELSMHWVRQTPGKGLEWMGGFDPEDGETIYAQKFQGRVTMTEDTSTDTAYMELSSLRSEDTAVYYCATTWFGELYYWGQGTLVTVSS
VL: ETTLTQSPGTLSLSPGERATLSCRASQSVSSGYLAWYQQKPGQAPRLLIYDASSRATGIPDRFSGSGSGADFTLTISRLQPEDFAVYYCQQYGSSRPGLTFGGGTRVEIK
notes: IgG1 format; also called F5-IgG1
B7 was tested, and the “EC50 (read off the curve)” value [1] was roughly 5 nM.

B8: anti-LAG-3 antibody clone F5 Fab (Fab, V domains shown)
VH: B7 VH
VL: B7 VL
With B8 the binding result [2] was “no binding” and the IC50 [3] was 3 nM.

B9: anti-LAG-3 antibody clone F5 (format not stated) (antibody, V domains shown)
VH: B7 VH
VL: B7 VL
notes: also called antibody F5
Work on B9 yielded a Kd [4] of 1.21 nM.

B10: anti-LAG-3 antibody clone F5 in IgG4 format (antibody, V domains shown)
VH: B7 VH
VL: B7 VL
notes: also called F5 IgG4
For B10, the “EC50 (read off the curve)” value [1] was roughly 3 nM.

B11: anti-LAG-3 antibody clone C12 Fab (Fab, V domains shown)
VH: QVQLVQSGAEVKKPGSSVKVSCKASGGTFSSYAISWVRQAPGQGLEWMGGIIPIFGTANYAQKFQGRVTITADESTSTAYMELSSLRSEDTAVYYCARALADFWSGYYYYYYMDVWGKGTTVTVSS
VL: DVVMTQSPLSLPVTPGEPASISCRSSQSLLHSDGYNYFDWYLQKPGQSPQLLIYLGSNRAAGVPDRFSGSGSGTDFTLKISRVEAEDVGVYYCMQGTHWPPTFGQGTKLEIK
B11 was tested, and the binding result [2] was “binds” and the IC50 [3] was 18 nM.

B12: anti-LAG-3 antibody clone A6 in IgG1 format (antibody, V domains shown)
VH: EVQLVQSGAEVKKPGSSVKVSCKASGYTFTSYYMHWVRQAPGQGLEWMGIINPSGGSTSYAQKFQGRVTMTRDTSTSTVYMELSSLRSEDTAVYYCAMPFGDFDYWGQGTLVTVSS
VL: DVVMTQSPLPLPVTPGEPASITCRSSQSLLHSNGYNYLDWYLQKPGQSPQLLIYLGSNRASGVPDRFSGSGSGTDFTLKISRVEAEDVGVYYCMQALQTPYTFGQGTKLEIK
notes: also called A6 IgG1
For B12, the “EC50 (read off the curve)” value [1] was roughly 0.7 nM.

B13: anti-LAG-3 antibody clone A6 Fab (Fab, V domains shown)
VH: B12 VH
VL: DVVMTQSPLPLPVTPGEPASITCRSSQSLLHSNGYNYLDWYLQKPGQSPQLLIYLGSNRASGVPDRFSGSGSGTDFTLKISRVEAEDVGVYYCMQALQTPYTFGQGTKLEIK
notes: Fab format, from a human phage display library; the constant domains of the Fab are not
With B13 the “IC50 (read off the curve)” value [7] was roughly 60 nM, the Kd [8] was 2.2 nM and the IC50 [3] was 111 nM. The Kd [9] was 2.18 nM, the koff [9] was 0.000456 s⁻¹ and the kon [9] was 209000 M⁻¹ s⁻¹. For the same binder, the IC50 [6] was 62.2 nM.

B14: anti-LAG-3 antibody clone A6 (format not stated) (antibody, V domains shown)
VH: B12 VH
VL: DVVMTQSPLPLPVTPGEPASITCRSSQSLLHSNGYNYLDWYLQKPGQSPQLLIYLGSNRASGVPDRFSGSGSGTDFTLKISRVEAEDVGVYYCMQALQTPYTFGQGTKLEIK
notes: also called antibody A6
Work on B14 yielded a Kd [4] of 1.25 nM.

B15: anti-LAG-3 antibody clone A6 in IgG4 format (antibody, V domains shown)
VH: B12 VH
VL: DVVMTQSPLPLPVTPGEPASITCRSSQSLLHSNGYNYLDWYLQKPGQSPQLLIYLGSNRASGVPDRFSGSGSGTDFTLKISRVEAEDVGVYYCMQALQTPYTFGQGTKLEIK
notes: also called A6 IgG4
B15 was tested, and the “EC50 (read off the curve)” value [1] was roughly 0.6 nM.
